# Results taken from patent US20190241648A1 (STATEN BIOTECHNOLOGY B V, published 2019).
# Ends that are not written are not given here.
# T1: ApoC3 peptide … W65T (human, not fully specified (bridges); also: cyclic constrained, ring type and places not given here)
# T1 peptide: DKFSEFTDLDPEV
# T2: ApoC3 peptide … F61L (human, not fully specified (bridges); also: cyclic constrained)
# T2 peptide: DKLSEFWDLDPEV
# T3: ApoC3 peptide … F64T (human, not fully specified (bridges); also: cyclic constrained)
# T3 peptide: DKFSETWDLDPEV
# T4: ApoC3 peptide … K60T (human, not fully specified (bridges); also: cyclic constrained)
# T4 peptide: DTFSEFWDLDPEV
# T5: ApoC3 peptide … D59N (human, cyclic constrained)
# T5 peptide: NKFSEFWDLDPEV
# T6: ApoC3 peptide … D66P (human, not fully specified (bridges); also: cyclic constrained)
# T6 peptide: DKFSEFWPLDPEV
# T7: ApoC3 peptide … F64K (human, not fully specified (bridges); also: cyclic constrained)
# T7 peptide: DKFSEKWDLDPEV
# T8: ApoC3 peptide … K60R (human, not fully specified (bridges); also: cyclic constrained)
# T8 peptide: DRFSEFWDLDPEV
# T9: ApoC3 peptide … D66C (human, not fully specified (bridges); also: cyclic constrained)
# T9 peptide: DKFSEFWCLDPEV
# T10: ApoC3 peptide … F61S (human, not fully specified (bridges); also: cyclic constrained)
# T10 peptide: DKSSEFWDLDPEV
# T11: ApoC3 peptide … D59Q (human, cyclic constrained)
# T11 peptide: QKFSEFWDLDPEV
# T12: ApoC3 peptide … E70T (human, cyclic constrained)
# T12 peptide: DKFSEFWDLDPTV
# T13: ApoC3 peptide … P69H (human, not fully specified (bridges); also: cyclic constrained)
# T13 peptide: DKFSEFWDLDHEV
# T14: ApoC3 peptide … E70K (human, not fully specified (bridges); also: cyclic constrained)
# T14 peptide: DKFSEFWDLDPKV
# T15: ApoC3 peptide … D66F (human, not fully specified (bridges); also: cyclic constrained)
# T15 peptide: DKFSEFWFLDPEV
# T16: ApoC3 peptide … L67K (human, not fully specified (bridges); also: cyclic constrained)
# T16 peptide: DKFSEFWDKDPEV
# T17: ApoC3 peptide … W65G (human, not fully specified (bridges); also: cyclic constrained, ring type and places not given here)
# T17 peptide: DKFSEFGDLDPEV
# T18: ApoC3 peptide … D59F (human, not fully specified (bridges); also: cyclic constrained)
# T18 peptide: FKFSEFWDLDPEV
# T19: ApoC3 peptide … L67P (human, not fully specified (bridges); also: cyclic constrained)
# T19 peptide: DKFSEFWDPDPEV
# T20: ApoC3 peptide … P69G (human, not fully specified (bridges); also: cyclic constrained)
# T20 peptide: DKFSEFWDLDGEV
# T21: ApoC3 peptide … K60G (human, not fully specified (bridges); also: cyclic constrained)
# T21 peptide: DGFSEFWDLDPEV
# T22: ApoC3 peptide … D59H (human, cyclic constrained)
# T22 peptide: HKFSEFWDLDPEV
# T23: ApoC3 peptide … F61K (human, not fully specified (bridges); also: cyclic constrained)
# T23 peptide: DKKSEFWDLDPEV
# Tests used:
# Test in all cases: peptide microarray
# ApoC3 peptide … W65T = target: T1, ApoC3 peptide … W65T
# Method in brief: (§1)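 ApoC3 peptide microarrays incubated with antibody samples and then stained with goat anti-human IgG (Fc) DyLight680 plus anti-HA DyLight800 control antibody. Scanned at intensity 7/7 (red/green); a secondary-only prestain checked for background, and framing HA peptides served as quality control.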
# ApoC3 peptide … F61L = target: T2, ApoC3 peptide … F61L
# Method in brief: as §1
# ApoC3 peptide … E63I = ApoC3 peptide … E63I (human, cyclic constrained)
# Method in brief: as §1
# ApoC3 peptide … F64T = target: T3, ApoC3 peptide … F64T
# Method in brief: as §1
# ApoC3 peptide … K60T = target: T4, ApoC3 peptide … K60T
# Method in brief: as §1
# ApoC3 peptide … E63S = ApoC3 peptide … E63S (human, cyclic constrained)
# Method in brief: as §1
# ApoC3 peptide … V71G = ApoC3 peptide … V71G (human, cyclic constrained)
# Method in brief: as §1
# ApoC3 peptide … E63H = ApoC3 peptide … E63H (human, cyclic constrained)
# Method in brief: as §1
# ApoC3 peptide … D59N = target: T5, ApoC3 peptide … D59N
# Method in brief: as §1
# ApoC3 peptide … D66P = target: T6, ApoC3 peptide … D66P
# Method in brief: as §1
# ApoC3 peptide … F64K = target: T7, ApoC3 peptide … F64K
# Method in brief: as §1
# ApoC3 peptide … K60R = target: T8, ApoC3 peptide … K60R
# Method in brief: as §1
# ApoC3 peptide … D66C = target: T9, ApoC3 peptide … D66C
# Method in brief: as §1
# ApoC3 peptide … F61S = target: T10, ApoC3 peptide … F61S
# Method in brief: as §1
# ApoC3 peptide … D59Q = target: T11, ApoC3 peptide … D59Q
# Method in brief: as §1
# ApoC3 peptide … E70T = target: T12, ApoC3 peptide … E70T
# Method in brief: as §1
# ApoC3 peptide … P69H = target: T13, ApoC3 peptide … P69H
# Method in brief: as §1
# ApoC3 peptide … D68Y = ApoC3 peptide … D68Y (human, cyclic constrained)
# Method in brief: as §1
# ApoC3 peptide … V71P = ApoC3 peptide … V71P (human, cyclic constrained)
# Method in brief: as §1
# ApoC3 peptide … E70K = target: T14, ApoC3 peptide … E70K
# Method in brief: as §1
# ApoC3 peptide … S62M = ApoC3 peptide … S62M (human, cyclic constrained)
# Method in brief: as §1
# ApoC3 peptide … D66F = target: T15, ApoC3 peptide … D66F
# Method in brief: as §1
# ApoC3 peptide … S62G = ApoC3 peptide … S62G (human, cyclic constrained)
# Method in brief: as §1
# ApoC3 peptide … L67K = target: T16, ApoC3 peptide … L67K
# Method in brief: as §1
# ApoC3 peptide … W65G = target: T17, ApoC3 peptide … W65G
# Method in brief: as §1
# ApoC3 peptide … E63M = ApoC3 peptide … E63M (human, cyclic constrained)
# Method in brief: as §1
# ApoC3 peptide … D59F = target: T18, ApoC3 peptide … D59F
# Method in brief: as §1
# ApoC3 peptide … W65F = ApoC3 peptide … W65F (human, cyclic constrained)
# Method in brief: as §1
# ApoC3 peptide … S62N = ApoC3 peptide … S62N (human, cyclic constrained)
# Method in brief: as §1
# ApoC3 peptide … L67P = target: T19, ApoC3 peptide … L67P
# Method in brief: as §1
# ApoC3 peptide … P69G = target: T20, ApoC3 peptide … P69G
# Method in brief: as §1
# ApoC3 peptide … K60G = target: T21, ApoC3 peptide … K60G
# Method in brief: as §1
# ApoC3 peptide … E63F = ApoC3 peptide … E63F (human, cyclic constrained)
# Method in brief: as §1
# ApoC3 peptide … P69V = ApoC3 peptide … P69V (human, cyclic constrained)
# Method in brief: as §1
# ApoC3 peptide … D59H = target: T22, ApoC3 peptide … D59H
# Method in brief: as §1
# ApoC3 peptide … S62I = ApoC3 peptide … S62I (human, cyclic constrained)
# Method in brief: as §1
# ApoC3 peptide … F61K = target: T23, ApoC3 peptide … F61K
# Method in brief: as §1
# ApoC3 peptide … D68V = ApoC3 peptide … D68V (human, cyclic constrained)
# Method in brief: as §1
binder,measurement,setting,value
"anti-ApoC3 antibody 6A6 (antibody, V domains shown, it was detected with goat anti-human IgG (Fc); also called mAb 6A6; llama antibody 6A6) VH: EVQLVESGGGLVQPGGSLRLSCAASGFTFSSYAGRWVRQVPGKGLEWVSSINAGGGSTSYADSVKGRFTISRDNAKNTLYLQMNSLKPEDTAKYYCTQNSYRYWGQGTRVAVSS VL: DVVLTQTPGSLSVVPGESASISCKASQSLIHTDGKTYLYWLLQKPGQRPQLLIYQVSSHESGVPDRFTGSGSGTDFTLKISGVKAEDAGVYYCAQATYNPRTFGQGTKLEIK",% of binding to wild-type peptide,ApoC3 peptide … W65T,105%
same,% of binding to wild-type peptide,ApoC3 peptide … F61L,61.3%
same,% of binding to wild-type peptide,ApoC3 peptide … E63I,8.76%
same,% of binding to wild-type peptide,ApoC3 peptide … F64T,215%
same,% of binding to wild-type peptide,ApoC3 peptide … K60T,149%
same,% of binding to wild-type peptide,ApoC3 peptide … E63S,35.2%
same,% of binding to wild-type peptide,ApoC3 peptide … V71G,109%
same,% of binding to wild-type peptide,ApoC3 peptide … E63H,12.3%
same,% of binding to wild-type peptide,ApoC3 peptide … D59N,77.5%
same,% of binding to wild-type peptide,ApoC3 peptide … D66P,0%
same,% of binding to wild-type peptide,ApoC3 peptide … F64K,107%
same,% of binding to wild-type peptide,ApoC3 peptide … K60R,105%
same,% of binding to wild-type peptide,ApoC3 peptide … D66C,7.92%
same,% of binding to wild-type peptide,ApoC3 peptide … F61S,39.2%
same,% of binding to wild-type peptide,ApoC3 peptide … D59Q,95%
same,% of binding to wild-type peptide,ApoC3 peptide … E70T,1.55%
same,% of binding to wild-type peptide,ApoC3 peptide … P69H,19.2%
same,% of binding to wild-type peptide,ApoC3 peptide … D68Y,0%
same,% of binding to wild-type peptide,ApoC3 peptide … V71P,110%
same,% of binding to wild-type peptide,ApoC3 peptide … E70K,0%
same,% of binding to wild-type peptide,ApoC3 peptide … S62M,63.5%
same,% of binding to wild-type peptide,ApoC3 peptide … D66F,7.27%
same,% of binding to wild-type peptide,ApoC3 peptide … S62G,53.9%
same,% of binding to wild-type peptide,ApoC3 peptide … L67K,25.8%
same,% of binding to wild-type peptide,ApoC3 peptide … W65G,49.5%
same,% of binding to wild-type peptide,ApoC3 peptide … E63M,43.5%
same,% of binding to wild-type peptide,ApoC3 peptide … D59F,61.5%
same,% of binding to wild-type peptide,ApoC3 peptide … W65F,55.3%
same,% of binding to wild-type peptide,ApoC3 peptide … S62N,126%
same,% of binding to wild-type peptide,ApoC3 peptide … L67P,0%
same,% of binding to wild-type peptide,ApoC3 peptide … P69G,16.3%
same,% of binding to wild-type peptide,ApoC3 peptide … K60G,117%
same,% of binding to wild-type peptide,ApoC3 peptide … E63F,8.5%
same,% of binding to wild-type peptide,ApoC3 peptide … P69V,68.3%
same,% of binding to wild-type peptide,ApoC3 peptide … D59H,85.8%
same,% of binding to wild-type peptide,ApoC3 peptide … S62I,129%
same,% of binding to wild-type peptide,ApoC3 peptide … F61K,37.2%
same,% of binding to wild-type peptide,ApoC3 peptide … D68V,0%
